These are literature values, as cited in publication PMC7488126.

The target in data set [1] is B7H6 (Homo sapiens) (UniProt Q68D85).
Data set [2] addresses CD48 (Homo sapiens) (UniProt P09326).
Data set [3] concerns the target CD155 (Homo sapiens) (UniProt P15151).
The target of data set [4] is CD112 (Homo sapiens) (UniProt Q92692).
UniProt Q92692, sequence (Q92692 32-360): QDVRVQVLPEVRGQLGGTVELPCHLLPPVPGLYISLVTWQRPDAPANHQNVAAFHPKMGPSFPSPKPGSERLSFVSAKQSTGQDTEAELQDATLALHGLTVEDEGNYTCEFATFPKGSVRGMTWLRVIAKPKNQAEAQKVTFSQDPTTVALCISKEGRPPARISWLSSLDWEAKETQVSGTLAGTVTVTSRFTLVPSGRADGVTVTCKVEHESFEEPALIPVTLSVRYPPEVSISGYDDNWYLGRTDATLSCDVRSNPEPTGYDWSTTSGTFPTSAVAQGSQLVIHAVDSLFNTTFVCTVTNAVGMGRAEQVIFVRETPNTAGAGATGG

UniProt P15151, sequence (P15151 21-343): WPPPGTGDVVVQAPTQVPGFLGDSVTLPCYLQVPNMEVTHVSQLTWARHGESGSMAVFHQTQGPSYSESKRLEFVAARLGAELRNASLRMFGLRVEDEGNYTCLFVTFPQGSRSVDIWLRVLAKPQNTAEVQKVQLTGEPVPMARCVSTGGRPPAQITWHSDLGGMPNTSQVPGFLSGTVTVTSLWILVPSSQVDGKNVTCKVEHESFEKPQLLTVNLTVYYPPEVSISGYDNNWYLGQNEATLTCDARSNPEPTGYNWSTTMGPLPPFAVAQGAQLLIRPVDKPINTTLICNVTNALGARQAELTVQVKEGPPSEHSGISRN
UniProt Q68D85, sequence (Q68D85 25-262): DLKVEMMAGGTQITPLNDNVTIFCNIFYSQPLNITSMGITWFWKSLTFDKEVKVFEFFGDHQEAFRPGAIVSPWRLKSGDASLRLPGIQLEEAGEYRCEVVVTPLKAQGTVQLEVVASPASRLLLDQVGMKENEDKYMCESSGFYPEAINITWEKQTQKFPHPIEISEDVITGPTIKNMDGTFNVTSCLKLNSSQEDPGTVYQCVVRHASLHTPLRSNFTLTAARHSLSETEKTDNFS
UniProt P09326, sequence (P09326 27-220): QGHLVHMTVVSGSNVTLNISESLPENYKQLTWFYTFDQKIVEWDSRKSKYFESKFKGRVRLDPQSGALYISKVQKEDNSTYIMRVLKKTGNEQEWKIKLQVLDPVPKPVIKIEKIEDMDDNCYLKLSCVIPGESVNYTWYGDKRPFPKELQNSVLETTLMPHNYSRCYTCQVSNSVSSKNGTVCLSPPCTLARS

As usually defined, the Kd is the concentration at which binding is half-saturated. As to “NKp30 Ig variable domain (from UniProt O14931)”, the Kd in data set [1] is 1000 nM.

As for 2B4 ECD (from UniProt Q9BZW8), the Kd in data set [2] was 8000 nM.

As to DNAM-1 (from UniProt Q15762), the Kd was 230 nM in data set [3] and 310 nM in data set [4].
